From patent US20230235004A1 (published 2023) come the findings set out here.

The target of experiment [1] is T1, human MAdCAM expressed on cells (human, UniProt Q13477 19-382).
T1 construct: whole, on cells
T1 sequence (looked up): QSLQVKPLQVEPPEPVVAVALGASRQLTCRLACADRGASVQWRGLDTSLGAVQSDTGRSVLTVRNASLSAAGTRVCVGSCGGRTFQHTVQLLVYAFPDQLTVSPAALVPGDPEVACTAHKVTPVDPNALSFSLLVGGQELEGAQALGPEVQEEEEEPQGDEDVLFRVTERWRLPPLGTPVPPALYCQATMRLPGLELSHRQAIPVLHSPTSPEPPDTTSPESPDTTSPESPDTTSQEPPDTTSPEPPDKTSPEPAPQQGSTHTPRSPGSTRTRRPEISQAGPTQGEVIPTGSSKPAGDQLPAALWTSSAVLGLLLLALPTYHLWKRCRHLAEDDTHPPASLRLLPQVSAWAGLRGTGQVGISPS
As to the kind of experiment: cell binding.

Experiment [2] deals with T2, mouse MAdCAM expressed on cells (mouse, UniProt Q61826 22-405).
T2 construct: whole, on cells
T2 sequence (looked up): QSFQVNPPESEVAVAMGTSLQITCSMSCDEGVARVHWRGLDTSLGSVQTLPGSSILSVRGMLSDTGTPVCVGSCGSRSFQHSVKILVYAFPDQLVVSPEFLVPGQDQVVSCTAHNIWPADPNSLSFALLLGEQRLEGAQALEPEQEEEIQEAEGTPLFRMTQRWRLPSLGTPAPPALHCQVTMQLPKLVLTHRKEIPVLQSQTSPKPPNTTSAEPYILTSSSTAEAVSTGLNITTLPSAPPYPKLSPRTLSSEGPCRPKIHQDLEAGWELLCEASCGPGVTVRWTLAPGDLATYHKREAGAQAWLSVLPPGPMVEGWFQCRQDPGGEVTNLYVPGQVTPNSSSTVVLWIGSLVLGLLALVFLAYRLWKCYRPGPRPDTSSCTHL
The experiment in a line: cell binding.

The next experiment concerns the target T3, human MAdCAM protein (human, UniProt Q13477 19-317, limits assumed).
T3 construct: also called soluble monomeric human MAdCAM; recombinant human MAdCAM
T3 sequence (looked up): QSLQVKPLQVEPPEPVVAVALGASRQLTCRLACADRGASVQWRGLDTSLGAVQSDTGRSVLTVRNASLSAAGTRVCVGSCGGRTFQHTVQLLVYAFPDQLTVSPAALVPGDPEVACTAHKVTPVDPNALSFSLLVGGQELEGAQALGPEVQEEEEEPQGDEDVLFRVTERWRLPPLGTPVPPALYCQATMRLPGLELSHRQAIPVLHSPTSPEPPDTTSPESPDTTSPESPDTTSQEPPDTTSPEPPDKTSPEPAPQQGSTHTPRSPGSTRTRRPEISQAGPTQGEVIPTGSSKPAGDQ
As to the kind of experiment: Octet. Background: In BLI a coated tip is dipped into the sample, and binding shifts an interference pattern.

For experiment [3], the target named is T4, recombinant mouse MAdCAM-1 (mouse, UniProt Q61826 22-364, limits assumed).
T4 construct: also called mMAdCAM-1
T4 sequence (looked up): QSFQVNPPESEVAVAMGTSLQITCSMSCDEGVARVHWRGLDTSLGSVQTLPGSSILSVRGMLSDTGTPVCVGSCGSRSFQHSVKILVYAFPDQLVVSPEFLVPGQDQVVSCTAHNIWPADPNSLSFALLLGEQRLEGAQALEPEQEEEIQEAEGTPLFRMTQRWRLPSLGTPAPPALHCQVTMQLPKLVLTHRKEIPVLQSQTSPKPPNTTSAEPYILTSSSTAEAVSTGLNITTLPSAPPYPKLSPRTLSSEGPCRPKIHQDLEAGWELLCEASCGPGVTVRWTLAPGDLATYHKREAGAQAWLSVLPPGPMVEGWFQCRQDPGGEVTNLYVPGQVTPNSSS
The experiment in a line: Octet.

B1: MAdCAM Antibody Table 2 clone 36 (antibody, V domains shown)
VH: EVQLLESGGGLVQPGGSLRLSCAASGFTFDDYALHWVRQAPGKGLEWVSAISGDGRSTTYADSVKGRFTISRDNSKNTLYLQMNSLRAEDTAVYYCARDGTVNGATGWFDPWGQGTLVTVSS
VL: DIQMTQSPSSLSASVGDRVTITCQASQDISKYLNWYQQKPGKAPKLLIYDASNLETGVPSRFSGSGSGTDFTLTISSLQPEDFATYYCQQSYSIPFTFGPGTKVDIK
notes: IgG format
Turning to B1, the binding result (in experiment [1]; in experiment [2]; with human MAdCAM protein) was “binds” each time.

B2: MAdCAM Antibody Table 2 clone 78 (antibody, V domains shown)
VH: QVQLVQSGAEVKKPGSSVKVSCKASGGTFSSYAISWVRQAPGQGLEWMGWMEPHTGNTRYAQKFQGRVTITADESTSTAYMELSSLRSEDTAVYYCAKGGFSWFDPWGQGTLVTVSS
VL: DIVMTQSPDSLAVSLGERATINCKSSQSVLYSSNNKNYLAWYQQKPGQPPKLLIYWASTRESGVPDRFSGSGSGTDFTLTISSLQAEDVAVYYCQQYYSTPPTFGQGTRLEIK
notes: IgG format
For the molecule B2, the binding result (in experiment [1]; in experiment [2]; with human MAdCAM protein) was “binds” in each case.

B3: MAdCAM Antibody Table 2 clone 58 (antibody, V domains shown)
VH: EVQLLESGGGLVQPGGSLRLSCAASGFSVSSNYMSWVRQAPGKGLEWVAGISYDGSSKPYADSVKGRFTISRDNSKNTLYLQMNSLRAEDTAVYYCARSRGIAARPLQHWGQGTLVTVSS
VL: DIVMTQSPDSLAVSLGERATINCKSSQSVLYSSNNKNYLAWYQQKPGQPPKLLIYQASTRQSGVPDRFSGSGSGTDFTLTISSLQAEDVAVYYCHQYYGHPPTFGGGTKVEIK
notes: IgG format
With B3, the values for the binding result (in experiment [1]; in experiment [2]; with human MAdCAM protein) were “binds”, “no binding” and “binds”, respectively.

B4: MAdCAM Antibody Table 2 clone 76 (antibody, V domains shown)
VH: EVQLLESGGGLVQPGGSLRLSCAASGFTFDDYTMHWVRQAPGKGLEWVSDISGSGGSTYYADSVKGRFTISRDNSKNTLYLQMNSLRAEDTAVYYCAKDVVVAGTPLHFDYWGQGTLVTVSS
VL: DIQMTQSPSSLSASVGDRVTITCQASQDISNYLNWYQQKPGKAPKLLIYAASYLQSGVPSRFSGSGSGTDFTLTISSLQPEDFATYYCQQAHNYPITFGQGTRLEIK
notes: IgG format
For B4, the binding result (in experiment [1]; in experiment [2]; with human MAdCAM protein) was “binds” throughout.

B5: MAdCAM Antibody Table 2 clone 84 (antibody, V domains shown)
VH: QVQLVQSGAEVKKPGASVKVSCKASGGTFSSSAISWVRQAPGQGLEWMGWISAYNGYTNYAQKFQGRVTMTRDTSTSTVYMELSSLRSEDTAVYYCASRVHSGGSYPDDYWGQGTLVTVSS
VL: DIQMTQSPSSLSASVGDRVTITCQASEHIYNYLNWYQQKPGKAPKLLIYAASSLQSGVPSRFSGSGSGTDFTLTISSLQPEDFATYYCQQTDSIPITFGQGTKVEIK
notes: IgG format
Regarding B5, the binding result (in experiment [1]; in experiment [2]; with human MAdCAM protein) was “binds” each time.

B6: MAdCAM Antibody Table 2 clone 83 (antibody, V domains shown)
VH: EVQLLESGGGLVQPGGSLRLSCAASGFTFSSYWMHWVRQAPGKGLEWVAAISYDGKYKDYEDSVKGRFTISRDNSKNTLYLQMNSLRAEDTAVYYCARENKQWLASFDYWGQGTLVTVSS
VL: DIQMTQSPSSLSASVGDRVTITCQASQDISNFVNWYQQKPGKAPKLLIYAANLRSGVPSRFSGSGSGTDFTLTISSLQPEDFATYYCQQANSFPVTFGPGTKVDIK
notes: IgG format
Regarding B6, the binding result (in experiment [1]; in experiment [2]; with human MAdCAM protein) was “binds” each time.

B7: MAdCAM Antibody Table 2 clone 30 (antibody, V domains shown)
VH: EVQLLESGGGLVQPGGSLRLSCAASGFTFSSYAMHWVRQAPGKGLEWVSGISGSGGSAYYADSVKGRFTISRDNSKNTLYLQMNSLRAEDTAVYYCATSQAPVDYYYYGMDVWGQGTTVTVSS
VL: DIQMTQSPSSLSASVGDRVTITCRASQSISSWLAWYQQKPGKAPKLLIYAASNLQRGVPSRFSGSGSGTDFTLTISSLQPEDFATYYCQQSYSIPITFGQGTKVEIK
notes: IgG format
In the case of B7, the binding result (in experiment [1]; in experiment [2]; in the experiment with human MAdCAM protein) was “binds” in each case.

B8: MAdCAM Antibody Table 2 clone 6 (antibody, V domains shown)
VH: EVQLLESGGGLVQPGGSLRLSCAASGFTFNNYAFHWVRQAPGKGLEWVSRINSYGTSTTYADSVKGRFTISRDNSKNTLYLQMNSLRAEDTAVYYCAREGPVAGYWYFDLWGQGTLVTVSS
VL: DIQMTQSPSSLSASVGDRVTITCRASQIIGTNLAWYQQKPGKAPKLLIYGASSLQSGVPSRFSGSGSGTDFTLTISSLQPEDFATYYCQQSYRLPFTFGQGTKVEIK
notes: IgG format
For the molecule B8, the binding result in experiment [2] and in experiment [3] was “no binding” each time.

B9: MAdCAM Antibody Table 2 clone 82 (antibody, V domains shown)
VH: QVQLVQSGAEVKKPGASVKVSCKASGYTFTRHWIHWVRQAPGQGLEWMGWINVKTGGAGYAQKFQGRVTMTRDTSTSTVYMELSSLRSEDTAVYYCARESSGWYGTDVWGQGTTVTVSS
VL: DIQMTQSPSSLSASVGDRATITCRASQSISNYLAWYQQKPGKAPKLLIYAASSLQSGVPSRFSGSGSGTDFTLTISSLQPEDFATYYCQQSNSFPLTFGGGTKVEIK
notes: IgG format
Regarding B9, the binding result (in experiment [1]; in experiment [2]; in the experiment with human MAdCAM protein) was “binds” each time.

B10: MAdCAM Antibody Table 2 clone 60 (antibody, V domains shown)
VH: EVQLLESGGGLVQPGGSLRLSCAASGFTFSDHGMHWVRQAPGKGLEWVSVIYGGESTYYADSVKGRFTISRDNSKNTLYLQMNSLRAEDTAVYYCARDPAVAGGGIFDYWGQGTLVTVSS
VL: DIQMTQSPSSLSASVGDRVTITCRASQGISNYLAWYQQKPGKAPKLLIYDASNLETGVPSRFSGSGSGTDFTLTISSLQPEDFATYYCQQSYSTCYTFGQGTKLEIK
notes: IgG format
In the case of B10, the binding result (in experiment [1]; in experiment [2]; with human MAdCAM protein) was “binds” each time.

B11: MAdCAM Antibody Table 2 clone 14 (antibody, V domains shown)
VH: QVQLVQSGAEVKKPGSSVKVSCKASGYTFTNYYMHWVRQAPGQGLEWMGGIIPIVDGVKYAQKFQGRVTITADESTSTAYMELSSLRSEDTAVYYCAKGQFTGNYYYGMDYWGQGTLVTVSS
VL: DIQMTQSPSSLSASVGDRVTITCQANQDISNYLNWYQQKPGKAPKLLIYRASKLEAGVPSRFSGSGSGTDFTLTISSLQPEDFATYYCQQSSEIPYSFGQGTKVEIK
notes: IgG format
Turning to B11, the binding result in experiment [2] and in experiment [3] was “no binding” throughout.

B12: MAdCAM Antibody Table 2 clone 63 (antibody, V domains shown)
VH: EVQLLESGGGLVQPGGSLRLSCAASGFTFNNYGMNWVRQAPGKGLEWVSRINSDGSSTSYADSVKGRFTISRDNSKNTLYLQMNSLRAEDTAVYYCARGAYYYYYMDVWGQGTLVTVSS
VL: EIVMTQSPATLSVSPGERATLSCRASQSVSGSYLAWYQQKPGQAPRLLIYATSSRASGIPARFSGSGSGTEFTLTISSLQSEDFAVYYCQQYYSGLTFGQGTKVEIK
notes: IgG format
Take B12: the binding result in experiment [1] is “binds”; in experiment [2], “no binding”; in the experiment with human MAdCAM protein it was “binds”.

B13: MAdCAM Antibody Table 2 clone 28 (antibody, V domains shown)
VH: EVQLLESGGGLVQPGGSLRLSCAASGFTFSSYAMSWVRQAPGKGLEWVSYISSSSTYTNYADSVKGRFTISRDNSKNTLYLQMNSLRAEDTAVYYCARANSSSWYDWYFDLWGQGTLVTVSS
VL: not shown
notes: IgG format
As for B13, the binding result in experiment [2] and in experiment [3] was “no binding” in each case.

B14: MAdCAM Antibody Table 2 clone 29 (antibody, V domains shown)
VH: EVQLLESGGGLVQPGGSLRLSCAASGFTFSSYQMSWVRQAPGKGLEWVSYISSSSTYTNYADSVKGRFTISRDNSKNTLYLQMNSLRAEDTAVYYCARANSSSWYDWYFDLWGQGTLVTVSS
VL: not shown
notes: IgG format
Turning to B14, the binding result in experiment [2] and in experiment [3] was “no binding” each time.

B15: MAdCAM Antibody Table 2 clone 55 (antibody, V domains shown)
VH: EVQLLESGGGLVQPGGSLRLSCAASGFTFDDFAMHWVRQAPGKGLEWVSGISGNGDSRYYADSVKGRFTISRDNSKNTLYLQMNSLRAEDTAVYYCARDASYGGNYGMDVWGQGTTVTVSS
VL: DIQMTQSPSSLSASVGDRVTITCQASQDIRNYLNWYQQKPGKAPKLLIYKASTLESGVPSRFSGSGSGTDFTLTISSLQPEDFATYYCQQANSFPLTFGPGTKVDIK
notes: IgG format
On to B15, for which the binding result in experiment [1] is on record as “binds”; in experiment [2], “no binding”; with human MAdCAM protein it was “binds”.
